Sequences and labels used below:
B1: peptide HD2 (from tick evasin EVA4) / CCL22 (biotinylated, synthetic) (parent complex)
chain 1: EEDDYTAYAPLTCYFT
chain 2: GPYGANMEDSVCCRDYVRYRLPLRVVKHFYWTSDSCPRPGVVLLTFRDKEICADPRVPWVKMILNKLSQ

The assay covers variants of B1.
For the variant chain 1 EEDDYGAYAPLTCYFT, the enrichment was 3.08 log2 (difference from the parental peptide). chain 1 EEDDYCAYAPLTCYFT: the enrichment is -9.54 log2 (difference from the parental peptide).

chain 1 EEDDYNAYAPLTCYFT: the enrichment is 1.76 log2 (difference from the parental peptide). Then chain 1 EEDDYIAYAPLTCYFT, with -6.01 log2 (difference from the parental peptide). Then chain 1 EEDDFTAYAPLTCYFT, with -1.41 log2 (difference from the parental peptide); and chain 1 EEDDATAYAPLTCYFT, with -7.07 log2 (difference from the parental peptide); and chain 1 EEDDVTAYAPLTCYFT, with -5.81 log2 (difference from the parental peptide).

As to chain 1 EDDDYTAYAPLTCYFT, the enrichment was 1.62 log2 (difference from the parental peptide). Then chain 1 EADDYTAYAPLTCYFT, with -2.53 log2 (difference from the parental peptide). Then chain 1 EKDDYTAYAPLTCYFT, with -5.15 log2 (difference from the parental peptide); and chain 1 EEDDYTAYAPLTCYFV, with -0.0944 log2 (difference from the parental peptide). Then chain 1 EEDDYTAYAPLTCYFA, with 1.77 log2 (difference from the parental peptide). With chain 1 EEDDYTAYAPLTCYFG, the enrichment was 1.83 log2 (difference from the parental peptide).

On to chain 1 EEDDYTAYAPLTCYFM, for which the enrichment is 0.731 log2 (difference from the parental peptide).

Regarding chain 1 EEDDYTAYAPLTCYFQ, the enrichment is 1.11 log2 (difference from the parental peptide). Regarding chain 1 EEDDYTAYAPLTYYFT, the enrichment was -2.53 log2 (difference from the parental peptide). Then chain 1 EEDDYTAYAPLTLYFT, with -6.36 log2 (difference from the parental peptide). The figure for chain 1 EEDDYTAYAPLTWYFT is -3.31 log2 (difference from the parental peptide); for chain 1 EEDDYTAYAPLTPYFT it is -6.43 log2 (difference from the parental peptide). The figure for chain 1 EEDDYTLYAPLTCYFT is -0.735 log2 (difference from the parental peptide); for chain 1 EEDDYTACAPLTCYFT it is -9.68 log2 (difference from the parental peptide).

Regarding chain 1 EEDDYTAYAPHTCYFT, the enrichment was 2.09 log2 (difference from the parental peptide).

On to chain 1 EEDDYTAYAPDTCYFT, for which the enrichment was -5.76 log2 (difference from the parental peptide). Consider chain 1 EEDDYTAYAPMTCYFT, for which the enrichment was 2.52 log2 (difference from the parental peptide). Then chain 1 EEDDYTAYAPLTCYYT, with 1.03 log2 (difference from the parental peptide); and chain 1 EEDDYTAYAPLTCYTT, with 0.636 log2 (difference from the parental peptide). The figure for chain 1 EEDDYTAYAPLTCYDT is -4.01 log2 (difference from the parental peptide); for chain 1 EEDDYTAYAPLTCYAT it is 1.19 log2 (difference from the parental peptide); for chain 1 EEDDYTAYAPLTCYKT it is 0.708 log2 (difference from the parental peptide).

For the variant chain 1 EEDDYTAYAPLTCYIT, the enrichment is -0.829 log2 (difference from the parental peptide). chain 1 EEDDYTAYHPLTCYFT: the enrichment is -6.63 log2 (difference from the parental peptide). Then chain 1 EEDDYTAYTPLTCYFT, with -3.93 log2 (difference from the parental peptide); and chain 1 GEDDYTAYAPLTCYFT, with -1.59 log2 (difference from the parental peptide).

On to chain 1 HEDDYTAYAPLTCYFT, for which the enrichment is -2.89 log2 (difference from the parental peptide). Then chain 1 VEDDYTAYAPLTCYFT, with -1.89 log2 (difference from the parental peptide); and chain 1 AEDDYTAYAPLTCYFT, with -1.32 log2 (difference from the parental peptide). The figure for chain 1 QEDDYTAYAPLTCYFT is -0.35 log2 (difference from the parental peptide).

chain 1 EEDDYTAYAPLTCFFT: the enrichment is -0.133 log2 (difference from the parental peptide). Then chain 1 EEDDYTAYAPLTCEFT, with -6.44 log2 (difference from the parental peptide). The figure for chain 1 EEDDYTAYAPLTCIFT is -0.881 log2 (difference from the parental peptide). The figure for chain 1 EEDDYTAYAPLTCSFT is 0.0467 log2 (difference from the parental peptide); for chain 1 EEDDYTAYAPLTCMFT it is -1.86 log2 (difference from the parental peptide). As for chain 1 EEDDYTAYAPLTCRFT, the enrichment is -0.04 log2 (difference from the parental peptide). Take chain 1 EEDDYTAYAPLFCYFT: the enrichment was -1.02 log2 (difference from the parental peptide). Then chain 1 EEDDYTAYAPLMCYFT, with -0.275 log2 (difference from the parental peptide); and chain 1 EEDDYTAYAPLVCYFT, with -0.299 log2 (difference from the parental peptide). For chain 1 EEDDYTAYAPLICYFT, the enrichment was -0.506 log2 (difference from the parental peptide).

As to chain 1 EEDSYTAYAPLTCYFT, the enrichment is -6.14 log2 (difference from the parental peptide). The figure for chain 1 EEDEYTAYAPLTCYFT is -1.08 log2 (difference from the parental peptide); for chain 1 EEDVYTAYAPLTCYFT it is -8.27 log2 (difference from the parental peptide); for chain 1 EETDYTAYAPLTCYFT it is -3.61 log2 (difference from the parental peptide). The figure for chain 1 EENDYTAYAPLTCYFT is -3.54 log2 (difference from the parental peptide); for chain 1 EEVDYTAYAPLTCYFT it is -6.53 log2 (difference from the parental peptide); for chain 1 EELDYTAYAPLTCYFT it is -5 log2 (difference from the parental peptide). As to chain 1 EEMDYTAYAPLTCYFT, the enrichment is -3.93 log2 (difference from the parental peptide). Then chain 1 EEFDYTAYAPLTCYFT, with -5 log2 (difference from the parental peptide).

(Values after publication PMC11969024 (2025).)
